Reference: US20060160994A1

Columns and labels:
[1] = biological target: low density lipoprotein receptor-related protein (LRP), purified and immobilized (UniProt Q07954); assay: SPR, LRP immobilized (8.3 fmol/mm^2), analyte 100 nM, corrected for nonspecific binding
[2] = biological target: LRP exposed on the surface of mouse fibroblast (C127) cells (mouse (mouse fibroblast cells)) (UniProt Q91ZX7); assay: cell-based or functional assay
Sequence of LRP exposed on the surface of mouse fibroblast (C127) cells (mouse (mouse fibroblast cells)) (Q91ZX7 20-4545): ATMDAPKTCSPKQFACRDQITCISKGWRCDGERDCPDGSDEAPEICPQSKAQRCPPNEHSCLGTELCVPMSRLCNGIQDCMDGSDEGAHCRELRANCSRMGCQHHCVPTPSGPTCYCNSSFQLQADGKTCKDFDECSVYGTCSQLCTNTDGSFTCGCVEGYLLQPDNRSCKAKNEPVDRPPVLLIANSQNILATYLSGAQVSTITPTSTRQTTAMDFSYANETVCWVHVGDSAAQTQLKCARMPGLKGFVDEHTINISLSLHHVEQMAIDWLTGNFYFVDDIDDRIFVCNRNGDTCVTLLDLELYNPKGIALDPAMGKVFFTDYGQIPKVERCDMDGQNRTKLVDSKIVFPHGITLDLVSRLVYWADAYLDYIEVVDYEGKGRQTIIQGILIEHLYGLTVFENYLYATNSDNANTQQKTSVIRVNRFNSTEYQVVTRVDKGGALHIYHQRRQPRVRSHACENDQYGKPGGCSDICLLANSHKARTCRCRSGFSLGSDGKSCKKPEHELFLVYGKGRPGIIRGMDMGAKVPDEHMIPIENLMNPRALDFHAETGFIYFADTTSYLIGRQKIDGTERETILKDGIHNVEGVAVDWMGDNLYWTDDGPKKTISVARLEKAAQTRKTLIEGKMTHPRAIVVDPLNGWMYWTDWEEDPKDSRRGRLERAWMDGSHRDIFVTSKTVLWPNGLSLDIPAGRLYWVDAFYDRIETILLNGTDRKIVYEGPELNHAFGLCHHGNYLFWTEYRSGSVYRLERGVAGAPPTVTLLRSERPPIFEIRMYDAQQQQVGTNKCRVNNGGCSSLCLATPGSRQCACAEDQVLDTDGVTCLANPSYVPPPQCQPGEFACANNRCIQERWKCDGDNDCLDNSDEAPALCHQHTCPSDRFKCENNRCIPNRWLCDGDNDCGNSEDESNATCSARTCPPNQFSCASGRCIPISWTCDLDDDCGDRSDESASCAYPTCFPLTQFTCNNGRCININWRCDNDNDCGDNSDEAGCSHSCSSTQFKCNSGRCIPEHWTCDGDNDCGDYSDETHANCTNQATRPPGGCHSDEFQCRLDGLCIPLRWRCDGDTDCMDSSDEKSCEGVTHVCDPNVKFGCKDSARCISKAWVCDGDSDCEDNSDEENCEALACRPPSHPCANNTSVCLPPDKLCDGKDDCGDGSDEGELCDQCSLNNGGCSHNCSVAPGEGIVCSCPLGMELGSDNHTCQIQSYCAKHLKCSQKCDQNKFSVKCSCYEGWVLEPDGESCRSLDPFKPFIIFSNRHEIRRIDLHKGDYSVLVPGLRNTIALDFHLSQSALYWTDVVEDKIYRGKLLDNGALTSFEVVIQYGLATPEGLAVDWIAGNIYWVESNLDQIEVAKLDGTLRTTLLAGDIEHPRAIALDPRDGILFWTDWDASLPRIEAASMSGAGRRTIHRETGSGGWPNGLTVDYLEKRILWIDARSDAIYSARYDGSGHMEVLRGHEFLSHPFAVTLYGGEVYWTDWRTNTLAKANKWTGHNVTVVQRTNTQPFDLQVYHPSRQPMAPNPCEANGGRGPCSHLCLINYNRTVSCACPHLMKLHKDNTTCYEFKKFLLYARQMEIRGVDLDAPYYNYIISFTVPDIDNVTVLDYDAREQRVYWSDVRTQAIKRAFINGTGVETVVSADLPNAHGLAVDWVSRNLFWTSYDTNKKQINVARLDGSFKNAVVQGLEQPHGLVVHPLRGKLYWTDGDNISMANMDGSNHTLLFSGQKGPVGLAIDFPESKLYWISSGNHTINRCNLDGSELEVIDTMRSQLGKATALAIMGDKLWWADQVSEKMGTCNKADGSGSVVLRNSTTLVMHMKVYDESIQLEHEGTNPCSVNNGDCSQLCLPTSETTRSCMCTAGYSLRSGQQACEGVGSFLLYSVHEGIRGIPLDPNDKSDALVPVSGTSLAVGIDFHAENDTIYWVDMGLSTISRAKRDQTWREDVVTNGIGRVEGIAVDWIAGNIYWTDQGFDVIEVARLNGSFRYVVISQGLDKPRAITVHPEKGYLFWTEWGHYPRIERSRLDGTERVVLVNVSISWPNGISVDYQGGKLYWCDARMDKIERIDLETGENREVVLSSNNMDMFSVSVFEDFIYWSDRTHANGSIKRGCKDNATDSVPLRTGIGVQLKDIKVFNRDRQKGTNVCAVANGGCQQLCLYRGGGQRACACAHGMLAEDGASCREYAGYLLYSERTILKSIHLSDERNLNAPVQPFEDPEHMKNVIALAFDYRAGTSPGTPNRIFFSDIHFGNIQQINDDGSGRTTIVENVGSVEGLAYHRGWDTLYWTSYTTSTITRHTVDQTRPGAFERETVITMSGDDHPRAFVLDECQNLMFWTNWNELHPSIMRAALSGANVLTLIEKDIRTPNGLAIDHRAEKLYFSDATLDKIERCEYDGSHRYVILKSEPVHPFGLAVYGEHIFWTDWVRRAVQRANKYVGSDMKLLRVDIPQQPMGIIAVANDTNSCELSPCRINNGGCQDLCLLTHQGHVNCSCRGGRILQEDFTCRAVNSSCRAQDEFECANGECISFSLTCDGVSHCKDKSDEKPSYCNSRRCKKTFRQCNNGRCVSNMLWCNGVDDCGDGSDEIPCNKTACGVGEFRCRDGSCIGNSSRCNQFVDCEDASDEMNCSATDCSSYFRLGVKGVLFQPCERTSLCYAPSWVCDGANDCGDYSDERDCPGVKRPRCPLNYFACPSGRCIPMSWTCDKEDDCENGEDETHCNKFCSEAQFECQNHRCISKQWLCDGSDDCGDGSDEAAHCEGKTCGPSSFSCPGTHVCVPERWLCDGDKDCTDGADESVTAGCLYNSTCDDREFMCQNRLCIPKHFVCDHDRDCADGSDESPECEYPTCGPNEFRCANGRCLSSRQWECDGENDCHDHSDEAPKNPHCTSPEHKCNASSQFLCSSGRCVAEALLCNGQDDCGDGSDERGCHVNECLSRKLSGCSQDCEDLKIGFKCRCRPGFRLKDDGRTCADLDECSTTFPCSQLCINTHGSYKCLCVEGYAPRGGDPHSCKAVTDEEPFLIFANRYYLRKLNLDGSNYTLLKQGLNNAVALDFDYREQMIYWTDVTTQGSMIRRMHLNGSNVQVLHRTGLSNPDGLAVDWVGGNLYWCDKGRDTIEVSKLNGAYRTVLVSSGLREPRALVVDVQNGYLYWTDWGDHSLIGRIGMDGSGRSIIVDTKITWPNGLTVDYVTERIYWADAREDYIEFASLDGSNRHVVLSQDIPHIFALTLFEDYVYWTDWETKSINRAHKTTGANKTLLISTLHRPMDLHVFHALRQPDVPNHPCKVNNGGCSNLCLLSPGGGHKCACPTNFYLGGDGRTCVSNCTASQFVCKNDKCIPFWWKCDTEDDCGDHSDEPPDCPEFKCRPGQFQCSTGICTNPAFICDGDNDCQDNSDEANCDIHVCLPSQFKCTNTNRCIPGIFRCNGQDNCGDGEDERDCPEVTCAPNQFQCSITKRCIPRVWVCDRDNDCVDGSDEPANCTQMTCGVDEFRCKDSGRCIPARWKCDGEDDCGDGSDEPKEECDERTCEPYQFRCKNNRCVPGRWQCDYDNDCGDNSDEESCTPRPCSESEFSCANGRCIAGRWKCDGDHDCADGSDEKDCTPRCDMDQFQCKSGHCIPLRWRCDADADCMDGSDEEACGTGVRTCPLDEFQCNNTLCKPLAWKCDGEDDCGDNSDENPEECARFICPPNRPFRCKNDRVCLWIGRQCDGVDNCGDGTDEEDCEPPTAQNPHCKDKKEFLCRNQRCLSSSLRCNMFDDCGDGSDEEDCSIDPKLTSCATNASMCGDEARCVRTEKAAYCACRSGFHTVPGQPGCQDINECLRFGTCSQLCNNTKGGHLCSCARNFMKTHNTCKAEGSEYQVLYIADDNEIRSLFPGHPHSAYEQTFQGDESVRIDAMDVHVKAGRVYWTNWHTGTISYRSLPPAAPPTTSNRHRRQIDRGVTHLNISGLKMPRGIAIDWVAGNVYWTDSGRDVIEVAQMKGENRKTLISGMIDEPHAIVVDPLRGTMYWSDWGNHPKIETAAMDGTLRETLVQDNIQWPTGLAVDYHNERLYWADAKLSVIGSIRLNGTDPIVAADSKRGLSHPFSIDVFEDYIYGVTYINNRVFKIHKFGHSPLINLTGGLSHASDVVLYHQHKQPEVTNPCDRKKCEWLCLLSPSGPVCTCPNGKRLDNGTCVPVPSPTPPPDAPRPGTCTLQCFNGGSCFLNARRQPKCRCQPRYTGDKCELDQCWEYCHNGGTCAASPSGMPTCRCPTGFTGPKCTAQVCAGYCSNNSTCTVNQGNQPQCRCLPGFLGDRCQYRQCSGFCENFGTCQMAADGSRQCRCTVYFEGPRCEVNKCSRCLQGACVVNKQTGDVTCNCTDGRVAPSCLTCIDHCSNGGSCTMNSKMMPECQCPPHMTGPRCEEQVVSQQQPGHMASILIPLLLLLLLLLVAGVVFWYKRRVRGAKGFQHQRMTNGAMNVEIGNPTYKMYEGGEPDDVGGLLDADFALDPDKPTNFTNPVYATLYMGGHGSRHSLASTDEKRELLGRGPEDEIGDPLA

| Binding (resonance units) (resonance units) [1] | Ratio +RAP/-RAP of Factor VIII expression (U/L) in medium of C127 cells, 2 h [2] | Ratio +RAP/-RAP of Factor VIII expression (U/L) in medium of C127 cells, 3 h [2] | Substance |
| --- | --- | --- | --- |
| 262 |  |  | Factor VIII, P00451 20-1667; P00451 1668-2351 |
| 0 |  |  | heavy chain of Factor VIII (from UniProt P00451 20-1667) |
|  | 3.2 | 2.3 | normal Factor VIII (produced by stably transfected mouse fibroblast C127 cells) (from UniProt P00451 20-2351) |
| 446 |  |  | thrombin-activated Factor VIII (from UniProt P00451 20-391; P00451 392-759; P00451 1709-2351) |
